Data published in IntAct's records for PubMed 19375531.

B1: AH receptor-interacting protein (Homo sapiens), O00170 (parent)
chain: MADIIARLREDGIQKRVIQEGRGELPDFQDGTKATFHYRTLHSDDEGTVLDDSRARGKPMELIIGKKFKLPVWETIVCTMREGEIAQFLCDIKHVVLYPLVAKSLRNIAVGKDPLEGQRHCCGVAQMREHSSLGHADLDALQQNPQPLIFHMEMLKVESPGTYQQDPWAMTDEEKAKAVPLIHQEGNRLYREGHVKEAAAKYYDAIACLKNLQMKEQPGSPEWIQLDQQITPLLLNYCQCKLVVEEYYEVLDHCSSILNKYDDNVKAYFKRGKAHAAVWNAQEAQADFAKVLELDPALAPVVSRELRALEARIRQKDEEDKARFRGIFSH

Variants of: B1
Details: with hs90b_human HSP90AB1, P08238
Sequence of hs90b_human HSP90AB1, P08238 (P08238 whole entry): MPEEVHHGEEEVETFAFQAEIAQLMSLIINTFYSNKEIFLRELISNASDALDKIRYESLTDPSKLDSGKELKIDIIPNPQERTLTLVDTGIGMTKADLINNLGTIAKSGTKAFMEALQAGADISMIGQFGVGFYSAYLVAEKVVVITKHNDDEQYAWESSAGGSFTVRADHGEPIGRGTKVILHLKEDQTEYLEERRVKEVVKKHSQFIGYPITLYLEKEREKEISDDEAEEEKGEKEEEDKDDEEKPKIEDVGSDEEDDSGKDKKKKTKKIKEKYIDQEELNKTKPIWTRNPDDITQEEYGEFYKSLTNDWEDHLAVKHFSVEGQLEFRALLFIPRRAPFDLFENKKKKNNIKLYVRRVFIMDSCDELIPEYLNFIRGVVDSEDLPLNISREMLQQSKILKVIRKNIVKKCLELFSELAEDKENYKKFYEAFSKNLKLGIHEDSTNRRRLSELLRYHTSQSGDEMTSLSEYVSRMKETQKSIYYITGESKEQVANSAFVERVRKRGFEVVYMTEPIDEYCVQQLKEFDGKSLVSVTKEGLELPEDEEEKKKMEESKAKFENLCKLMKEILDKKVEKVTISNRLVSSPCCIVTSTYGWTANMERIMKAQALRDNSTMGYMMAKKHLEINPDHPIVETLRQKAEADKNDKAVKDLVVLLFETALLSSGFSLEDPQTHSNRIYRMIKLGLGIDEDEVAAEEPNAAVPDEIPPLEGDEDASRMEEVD

| Variant | effect of a mutation on the interaction |
| --- | --- |
| MADIIARLREDGIQKRVIQEGRGELPDFQDGTKATFHYRTLHSDDEGTVLDDSRARGKPMELIIGKKFKLPVWETIVCTMREGEIAQFLCDIKHVVLYPLVAKSLRNIAVGKDPLEGQRHCCGVAQMREHSSLGHADLDALQQNPQPLIFHMEMLKVESPGTYQQDPWAMTDEEKAKAVPLIHQEGNRLYREGHVKEAAAKYYDAIACLKNLQMKEQPGSPEWIQLDQQITPLLLNYCQCKLVVEEYYEVLDHCSSILNKYDDNVAAYFKRGKAHAAVWNAQEAQADFAKVLELDPALAPVVSRELRALEARIRQKDEEDKARFRGIFSH [K266A] | disrupting interaction |
| MADIIARLREDGIQKRVIQEGRGELPDFQDGTKATFHYRTLHSDDEGTVLDDSRARGKPMELIIGKKFKLPVWETIVCTMREGEIAQFLCDIKHVVLYPLVAKSLRNIAVGKDPLEGQRHCCGVAQMREHSSLGHADLDALQQNPQPLIFHMEMLKVESPGTYQQDPWAMTDEEKAKAVPLIHQEGNRLYREGHVKEAAAKYYDAIACLKNLQMKEQPGSPEWIQLDQQITPLLLNYCQCKLVVEEYYEVLDHCSSILNKYDDNVKAYFKAGKAHAAVWNAQEAQADFAKVLELDPALAPVVSRELRALEARIRQKDEEDKARFRGIFSH [R271A] | disrupting interaction |
